For assay [1], the target named is laminin peptide LAMA3_(3043–3067) (human) (UniProt Q16787).
The target in assay [2] is laminin peptide LAMA5_(3417–3436) (human) (UniProt O15230).
Assay [3] has as its target recombinant human laminin-521 (human) (UniProt O15230). Nature of the assay: SPR; laminin-521 immobilised by amine coupling on a C1 chip (~2000 RU); GF flown at 20 μL/min in 0.01 M HEPES pH 7.4, 0.15 M NaCl, 0.005% surfactant P20; Langmuir binding kinetics. Background: In SPR one partner is held on a chip, and binding of the other changes the refractive index at the surface.

Assay [4] has as its target recombinant laminin LAMA3_(2928–3150) protein (human) (UniProt Q16787). In words: SPR; LAMA3 2928–3150 immobilised by amine coupling on a C1 chip (~1000 RU); GF flown at 20 μL/min in 0.01 M HEPES pH 7.4, 0.15 M NaCl, 0.005% surfactant P20; Langmuir binding kinetics.

What is called pKd is the negative decadic logarithm of the Kd, by convention in mol/L.

pKd: −log10 of the molar value.

laminin peptide LAMA3_(3043–3067) (human), sequence (Q16787 3043-3067): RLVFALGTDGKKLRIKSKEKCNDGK
recombinant laminin LAMA3_(2928–3150) protein (human), sequence (Q16787 2928-3150): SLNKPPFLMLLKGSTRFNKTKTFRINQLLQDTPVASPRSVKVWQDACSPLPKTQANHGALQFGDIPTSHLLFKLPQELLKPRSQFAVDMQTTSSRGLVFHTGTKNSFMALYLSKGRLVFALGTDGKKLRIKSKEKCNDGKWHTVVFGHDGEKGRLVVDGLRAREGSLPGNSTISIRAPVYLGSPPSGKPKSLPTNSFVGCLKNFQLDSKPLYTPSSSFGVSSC
laminin peptide LAMA5_(3417–3436) (human), sequence (O15230 3417-3436): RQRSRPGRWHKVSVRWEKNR

As to “vascular endothelial cell growth factor VEGF-A165 (ligand)”, the cumulative release of VEGF-A165 after 5 days from a fibrin matrix with covalently incorporated α2PI1–8-LAMA3 (3043–3067) (without peptide >85% released after 24 h) in assay [1] was determined as 25%. In addition, in assay [2], the cumulative release of VEGF-A165 after 5 days from a fibrin matrix with covalently incorporated α2PI1–8-LAMA5 (3417–3436) (without peptide >85% released after 24 h) stood at 31%. Besides, the pKd in assay [3] is 8.24; in assay [4], 8.92.

The values above are taken from article PMC5986797, “Laminin heparin-binding peptides bind to several growth factors and enhance diabetic wound healing” (Nature Communications, 2018).
